B1: TAR1-5-19 5U homodimer (other)
chain: DIQMTQSPSSLSASVGDRVTITCRASQSIDSYLHWYQQKPGKAPKLLIYSASELQSGVPSRFSGSGSGTDFTLTISSLQPEDFATYYCQQVVWRPFTFGQGTKVEIKRGGGGSGGGGSGGGGSGGGGSGGGGSDIQMTQSPSSLSASVGDRVTITCRASQSIDSYLHWYQQKPGKAPKLLIYSASELQSGVPSRFSGSGSGTDFTLTISSLQPEDFATYYCQQVVWRPFTFGQGTKVEIKR
notes: also called TAR1-5-19 homodimer with (Gly4Ser)5 linker
B2: TAR1-5-19 7U homodimer (other)
chain: DIQMTQSPSSLSASVGDRVTITCRASQSIDSYLHWYQQKPGKAPKLLIYSASELQSGVPSRFSGSGSGTDFTLTISSLQPEDFATYYCQQVVWRPFTFGQGTKVEIKRGGGGSGGGGSGGGGSGGGGSGGGGSGGGGSGGGGSDIQMTQSPSSLSASVGDRVTITCRASQSIDSYLHWYQQKPGKAPKLLIYSASELQSGVPSRFSGSGSGTDFTLTISSLQPEDFATYYCQQVVWRPFTFGQGTKVEIKR
notes: also called TAR1-5-19 homodimer with (Gly4Ser)7 linker
B3: TAR1-5-19 3U homodimer (other)
chain: DIQMTQSPSSLSASVGDRVTITCRASQSIDSYLHWYQQKPGKAPKLLIYSASELQSGVPSRFSGSGSGTDFTLTISSLQPEDFATYYCQQVVWRPFTFGQGTKVEIKRGGGGSGGGGSGGGGSDIQMTQSPSSLSASVGDRVTITCRASQSIDSYLHWYQQKPGKAPKLLIYSASELQSGVPSRFSGSGSGTDFTLTISSLQPEDFATYYCQQVVWRPFTFGQGTKVEIKR
notes: also called TAR1-5-19 homodimer with (Gly4Ser)3 linker
B4: TAR1-5-19 cys hinge (other)
chain: DIQMTQSPSSLSASVGDRVTITCRASQSIDSYLHWYQQKPGKAPKLLIYSASELQSGVPSRFSGSGSGTDFTLTISSLQPEDFATYYCQQVVWRPFTFGQGTKVEIKREPKSGDKTHFCPPCP
notes: also called cysteine hinge linker format; hinge dimer
B5: TAR1-5-19 d6 (other)
chain: DIQMTQSPSSLSASVGDRVTITCRASQSIDSYLHWYQQKPGKAPKLLIYSASELQSGVPSRFSGSGSGTDFTLTISSLQPEDFATYYCQQVVWRPFTFGQGTKVEIKRGGGGSGGGGSGGGGSGGGGSGGGGSGGGGSGGGGSDIQMTQSPSSLSASVGDRVTITCRASQSIYDALEWYQQKPGKAPKLLIYTASRLQSGVPSRFSGSGSGTDFTLTISSLQPEDFATYYCQQVMQRPVTFGQGTKVEIK
B6: TAR1-5-19d5 (other)
scFv: DIQMTQSPSSLSASVGDRVTITCRASQSIDSYLHWYQQKPGKAPKLLIYSASELQSGVPSRFSGSGSGTDFTLTISSLQPEDFATYYCQQVVWRPFTFGQGTKVEIKRGGGGSGGGGSGGGGSGGGGSGGGGSDIQMTQSPSSLSASVGDRVTITCRASQSIYDALEWYQQKPGKAPKLLIYTASRLQSGVPSRFSGSGSGTDFTLTISSLQPEDFATYYCQQVMQRPVTFGQGTKVEIK
B7: TAR1-5-19 d1 (other)
chain: DIQMTQSPSSLSASVGDRVTITCRASQSIDSYLHWYQQKPGKAPKLLIYSASELQSGVPSRFSGSGSGTDFTLTISSLQPEDFATYYCQQVVWRPFTFGQGTKVEIKRGGGGSGGGGSGGGGSDIQMTQSPSSLSASVGDRVTITCRASQSIYDALEWYQQKPGKAPKLLIYTASRLQSGVPSRFSGSGSGTDFTLTISSLQPEDFATYYCQQVMQRPVTFGQGTKVEIK
B8: TAR1-5d6 (other)
chain: B5 chain with D30F, S31M, Y32N, H34L, S50N, E53V
notes: FPLC purified large dimeric species; also called dimer 6
B9: TAR1-5d5 (other)
chain: B6 scFv with D30F, S31M, Y32N, H34L, S50N, E53V
notes: FPLC purified large dimeric species; also called dimer 5
B10: TAR1-5d4 (other)
chain: DIQMTQSPSSLSASVGDRVTITCRASQSIFMNLLWYQQKPGKAPKLLIYNASVLQSGVPSRFSGSGSGTDFTLTISSLQPEDFATYYCQQVVWRPFTFGQGTKVEIKRGGGGSGGGGSGGGGSGGGGSGGGGSDIQMTQSPSSLSASVGDRVTITCRASQSVKEFLWWYQQKPGKAPKLLIYMASNLQSGVPSRFSGSGSGTDFTLTISSLQPEDFATYYCQQKFKLPRTFGQGTKVEIK
notes: FPLC purified small dimeric species; also called TAR1-5 dimer 4
B11: TAR1-5d1 (other)
chain: B7 chain with D30F, S31M, Y32N, H34L, S50N, E53V
notes: dAb-linker-dAb dimer; FPLC purified small dimeric species; also called dimer 1
B12: anti-serum albumin Vκ dAb clones 30, 35 (other)
VL: DIQMTQSPSSLSASVGDRVTITCRASQSIRRYLKWYQQKPGKAPKLLIYQASVLQSGVPSRFSGSGSGTDFTLTISSLQPEDFATYYCQQGLYPPITFGQGTKVEIK
B13: anti-serum albumin Vκ dAb clones 46, 47, 52, 56 (other)
VL: B12 VL with R30F, R31K, Y32S, Q50N, V53Y, G91V, L92V, P94W, I96V
notes: same printed CDRs as clone 55
B14: dAb3CH/TAR1-5CK (Fab, V domains shown)
V domain 1: DIQMTQSPSSLSASVGDRVTITCRASQSVKEFLWWYQQKPGKAPKLLIYMASNLQSGVPSRFSGSGSGTDFTLTISSLQPEDFATYYCQQKFKLPRTFGQGTKVEIK
V domain 2: B12 VL with R30F, R31M, Y32N, K34L, Q50N, G91V, L92V, Y93W, P94R, I96F
notes: also called TAR1-5CK d3CH
B15: TAR1-5-19CH/dAb1 CK (Fab, V domains shown)
V domain 1: B12 VL with R30D, R31S, K34H, Q50S, V53E, G91V, L92V, Y93W, P94R, I96F
V domain 2: DIQMTQSPSSLSASVGDRVTITCRASQSIYDALEWYQQKPGKAPKLLIYTASRLQSGVPSRFSGSGSGTDFTLTISSLQPEDFATYYCQQVMQRPVTFGQGTKVEIK
notes: also called TAR1-5-19CH d1CK
B16: dAb1 CH/TAR1-5-19CK (Fab, V domains shown)
V domain 1: B15 V domain 2
V domain 2: B15 V domain 2 with Y30D, D31S, A32Y, E34H, T50S, R53E, M92V, Q93W, V96F
notes: also called TAR1-5-19CK d1CH
B17: TAR1-5CH/dAb1 CK (Fab, V domains shown)
V domain 1: B15 V domain 2 with Y30F, D31M, A32N, E34L, T50N, R53V, M92V, Q93W, V96F
V domain 2: B15 V domain 2
B18: TAR1-5-19CH/dAb3CK (Fab, V domains shown)
V domain 1: B15 V domain 2 with Y30D, D31S, A32Y, E34H, T50S, R53E, M92V, Q93W, V96F
V domain 2: B14 V domain 1
notes: also called TAR1-5-19CH d3CK
B19: TAR1-5-19, MSA16 cys bonded heterodimer (bispecific antibody, V domains shown)
V domain 1: DIQMTQSPSSLSASVGDRVTITCRASQSIDSYLHWYQQKPGKAPKLLIYSASELQSGVPSRFSGSGSGTDFTLTISSLQPEDFATYYCQQVVWRPFTFGQGTKVEIKR
V domain 2: DIQMTQSPSSLSASVGDRVTITCRASQSIIKHLKWYQQKPGKAPKLLIYGASRLQSGVPSRFSGSGSGTDFTLTISSLQPEDFATYYCQQGARWPQTFGQGTKVEIKR
modifications: C-terminal Cys disulphide bonded to the C-terminal Cys of the MSA16 chain ; chain 1 pos 109 Cys and chain 2 pos 109 Cys are joined by an intermolecular disulphide bond (chemical coupling via dithiodipyridine); no tags
notes: two Vκ dAbs joined by a disulphide bond; separated from monomers by cation exchange; also called disulphide bonded heterodimer of TAR1-5-19 dAb and MSA16 dAb; heterodimeric species
B20: TAR1-5-19CYS dimer (other)
chain: DIQMTQSPSSLSASVGDRVTITCRASQSIDSYLHWYQQKPGKAPKLLIYSASELQSGVPSRFSGSGSGTDFTLTISSLQPEDFATYYCQQVVWRPFTFGQGTKVEIKRC
modifications: disulphide between the C-terminal Cys of the two chains
notes: separated from monomer by cation exchange; also called the dimer

Positions count from the first letter of the chain named.

The target in one assay is T1, human TNFα (human, UniProt P01375 77-233). In words: cell-based or functional assay.
T1 sequence (P01375 77-233 limits assumed): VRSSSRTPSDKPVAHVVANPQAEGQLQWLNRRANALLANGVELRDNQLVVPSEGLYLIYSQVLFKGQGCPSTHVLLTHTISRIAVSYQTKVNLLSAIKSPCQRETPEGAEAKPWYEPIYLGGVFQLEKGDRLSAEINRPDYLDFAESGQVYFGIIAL
Regarding B1, the “CA (cell assay) ND50” value was about 3 nM. As to B2, the “CA (cell assay) ND50” value was about 15 nM.

Take B3: the “CA (cell assay) ND50” value was about 30 nM.

For the next assay, the target named is T1, human TNFα. Nature of the assay: TNF receptor assay (ELISA): inhibition of TNF binding to plate-bound TNF receptor 1-Fc. Background: An ELISA detects its analyte on a solid surface through an enzyme-linked reagent.
The term IC50 denotes the concentration that gives 50% inhibition. A higher IC50 goes with lower potency. B1 came in with an IC50 of about 2 nM. Still for that read-out and setting: then B2, with about 10 nM; and B4, with about 2 nM. As to B3, the IC50 is about 20 nM.

In the next assay the target is T1, human TNFα. The assay is described as above. The source holds these as a separate data set.
The molecule B5 yielded an IC50 of about 10 nM. B6 registered an IC50 of about 8 nM. B7: the IC50 is about 15 nM.

A further assay addresses T1, human TNFα. The assay is described as above. This is another data set of the same source.
Consider B8, for which the 50% inhibitory concentration (IC50) is about 100 nM. Consider B9, for which the IC50 is about 200 nM.

Take B10: the IC50 is about 3 nM.

B11 returned an IC50 of about 30 nM.

A further assay deals with T2, mouse serum albumin (mouse, UniProt P07724 25-608).
T2 construct: biotinylated MSA (about 2 biotins per molecule) in the capture ELISA; also called MSA
T2 sequence (P07724 25-608 limits assumed): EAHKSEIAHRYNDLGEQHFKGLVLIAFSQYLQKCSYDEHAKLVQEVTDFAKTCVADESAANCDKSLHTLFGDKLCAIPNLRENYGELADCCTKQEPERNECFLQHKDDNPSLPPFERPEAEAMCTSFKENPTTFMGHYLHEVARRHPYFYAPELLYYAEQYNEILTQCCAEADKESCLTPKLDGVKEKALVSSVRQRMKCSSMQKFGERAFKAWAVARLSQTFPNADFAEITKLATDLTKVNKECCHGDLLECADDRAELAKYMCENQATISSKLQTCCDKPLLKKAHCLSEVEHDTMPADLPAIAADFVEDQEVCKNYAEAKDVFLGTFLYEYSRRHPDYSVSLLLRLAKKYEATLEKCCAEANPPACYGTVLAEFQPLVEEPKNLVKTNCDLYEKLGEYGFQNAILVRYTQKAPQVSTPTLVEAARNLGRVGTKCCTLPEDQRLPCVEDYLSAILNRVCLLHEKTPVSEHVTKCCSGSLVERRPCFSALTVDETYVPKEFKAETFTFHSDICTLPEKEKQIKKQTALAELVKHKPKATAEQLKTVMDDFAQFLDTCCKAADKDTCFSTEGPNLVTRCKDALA
Nature of the assay: capture ELISA: dAb on protein L, biotinylated MSA, streptavidin-HRP. On the procedure:
Two rounds of selection were performed on serum albumin using each of the libraries separately. For each selection, antigen was coated on immunotube (nunc) in 4 ml of PBS at a concentration of 100 μg/ml. In the first round of selection, each of the three libraries was panned separately against HSA (Sigma) and MSA (Sigma). In the second round of selection, phage from each of the six first round selections was panned against (i) the same antigen again (eg 1st round MSA, 2nd round MSA) and (ii) against the reciprocal antigen (eg 1st round MSA, 2nd round HSA) resulting in a total of twelve 2nd round selections. In each case, after the second round of selection 48 clones were tested for binding to HSA and MSA. Soluble dAb fragments were produced as described for scFv fragments by Harrison et al, Methods Enzymol. 1996; 267:83-109 and standard ELISA protocol was followed (Hoogenboom et al. (1991) Nucleic Acids Res., 19: 4133) except that 2% tween PBS was used as a blocking buffer and bound dabs were detected with either protein LHRP (Sigma) (for the Vκs) and protein A—HRP (Amersham Pharmacia Biotech) (for the VHs).
Next, the serum albumin binding dAbs were tested for their ability to capture biotinylated antigen from solution. ELISA protocol (as above) was followed except that ELISA plate was coated with 1 μg/ml protein L (for the Vκ clones) and 1 μg/ml protein A (for the VH clones). Soluble dAb was captured from solution as in the protocol and detection was with biotinylated MSA or HSA and streptavidin HRP. The biotinylated MSA and HSA had been prepared according to the manufacturer's instructions, with the aim of achieving an average of 2 biotins per serum albumin molecule. […] Next, the dAbs were tested for their ability to bind MSA coated on a CM5 biacore chip.
As for B12, the binding result is on record as “binds”. With B13, the binding result is “binds”.

Another assay addresses T1, human TNFα. Nature of the assay: TNF receptor assay (ELISA): inhibition of TNF binding to plate-bound TNF receptor 1-Fc. This is another data set of the same source.
B14 registered an IC50 of about 100 nM. Molecule B15 came in with an IC50 of about 6 nM.

As to B16, the IC50 is about 6 nM.

As to B17, the IC50 is about 90 nM.

In the case of B18, the IC50 was about 3 nM.

The next assay concerns the target T1, human TNFα. The assay is described as above. This is another data set of the same source.
The molecule B19 showed an IC50 of about 18 nM. B20: the IC50 was in the range of 0.3 to 0.8 nM.

The values are drawn from US20060257406A1 (published 2006).
